Legend:
Test in all cases: competition EMSA; preferred substrate in mixture; 25 mM MOPS pH 7.0, 0.2% Tween-20, 1 mM CaCl2, 2 mM DTT; 25 nM 32P-DNA; 37 C 10 min, then 0.2% glutaraldehyde 15 min; 8% TBE acrylamide gel
Settings in all cases: protein: recombinant; tags: C-terminal 10xHis; N-terminal GST cleaved with PreScission; label: 32P on strand 3 (JYM1745); D-loop: 1:2 with unpaired bubble, 3 paired to 2 in the bubble
[1] = molecular target: T1, LiRad51-4 (Leishmania infantum, UniProt A4HUT5 1-518)
T1 sequence: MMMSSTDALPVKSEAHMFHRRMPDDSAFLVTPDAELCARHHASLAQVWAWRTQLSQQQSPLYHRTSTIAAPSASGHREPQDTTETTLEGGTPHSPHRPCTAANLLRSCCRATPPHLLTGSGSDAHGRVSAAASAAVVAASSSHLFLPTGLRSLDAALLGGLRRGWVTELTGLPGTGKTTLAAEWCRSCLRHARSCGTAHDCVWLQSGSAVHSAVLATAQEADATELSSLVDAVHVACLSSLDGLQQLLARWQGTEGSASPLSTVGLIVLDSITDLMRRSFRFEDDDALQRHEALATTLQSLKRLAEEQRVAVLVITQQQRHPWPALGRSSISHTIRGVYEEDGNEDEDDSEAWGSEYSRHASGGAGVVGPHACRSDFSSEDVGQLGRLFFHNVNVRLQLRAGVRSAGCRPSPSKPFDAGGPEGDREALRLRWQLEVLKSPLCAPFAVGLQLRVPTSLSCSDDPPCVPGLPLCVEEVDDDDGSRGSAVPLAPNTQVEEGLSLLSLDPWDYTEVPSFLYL

[2] = molecular target: T2, LiRad51-6 (Leishmania infantum, UniProt A4I499 1-649)
T2 sequence: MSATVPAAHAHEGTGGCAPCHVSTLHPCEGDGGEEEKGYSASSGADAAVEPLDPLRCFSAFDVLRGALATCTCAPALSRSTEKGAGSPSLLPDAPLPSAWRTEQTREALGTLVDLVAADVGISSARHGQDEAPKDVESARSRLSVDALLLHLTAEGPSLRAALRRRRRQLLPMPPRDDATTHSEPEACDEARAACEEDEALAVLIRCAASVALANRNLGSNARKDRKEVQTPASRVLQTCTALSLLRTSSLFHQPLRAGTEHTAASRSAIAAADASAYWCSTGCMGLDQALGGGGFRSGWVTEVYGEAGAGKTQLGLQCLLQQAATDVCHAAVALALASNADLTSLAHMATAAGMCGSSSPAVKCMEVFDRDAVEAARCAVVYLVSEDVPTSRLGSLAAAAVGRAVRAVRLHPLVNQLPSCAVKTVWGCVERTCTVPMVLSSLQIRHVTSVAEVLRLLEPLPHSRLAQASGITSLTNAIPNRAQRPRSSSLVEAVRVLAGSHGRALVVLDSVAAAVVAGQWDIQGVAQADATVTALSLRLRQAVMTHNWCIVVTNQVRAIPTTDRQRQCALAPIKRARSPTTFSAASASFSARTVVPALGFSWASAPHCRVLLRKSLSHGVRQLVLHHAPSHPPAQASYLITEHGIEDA

[3] = molecular target: T3, LiRad51-3 (Leishmania infantum, UniProt E9AHR7 1-687)
T3 sequence: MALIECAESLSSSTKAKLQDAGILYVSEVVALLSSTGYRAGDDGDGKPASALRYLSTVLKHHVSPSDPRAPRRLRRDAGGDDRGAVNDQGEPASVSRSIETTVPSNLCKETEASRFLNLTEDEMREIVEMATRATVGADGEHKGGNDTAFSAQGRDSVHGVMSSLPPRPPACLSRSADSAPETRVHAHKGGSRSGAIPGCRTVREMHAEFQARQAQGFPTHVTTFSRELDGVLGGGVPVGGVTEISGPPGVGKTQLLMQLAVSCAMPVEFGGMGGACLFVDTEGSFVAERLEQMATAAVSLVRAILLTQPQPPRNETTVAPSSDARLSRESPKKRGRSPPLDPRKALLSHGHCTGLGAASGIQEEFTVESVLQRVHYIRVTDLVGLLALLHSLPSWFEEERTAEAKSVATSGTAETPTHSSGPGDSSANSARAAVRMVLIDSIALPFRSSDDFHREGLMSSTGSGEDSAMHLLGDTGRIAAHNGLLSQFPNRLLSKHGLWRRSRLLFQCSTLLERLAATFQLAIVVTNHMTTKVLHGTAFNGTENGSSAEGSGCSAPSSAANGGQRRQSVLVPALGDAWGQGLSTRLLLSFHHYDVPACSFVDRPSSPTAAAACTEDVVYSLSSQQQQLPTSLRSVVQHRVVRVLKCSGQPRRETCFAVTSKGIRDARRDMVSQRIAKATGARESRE

Measured: binding result

B1: D-loop (JYM1395/JYM1396/JYM1745) (structured_DNA)
DNA 1: GCCAGGGACGGGGTGAACCTGCAGGTGGGCGGCTGCTCATCGTAGGTTAGTATCGACCTATTGGTAGAATTCGGCAGCGTCATGCGACGGC
DNA 2: GCCGTCGCATGACGCTGCCGAATTCTACCACGCTACTAGGGTGCCTTGCTAGGACATCTTTGCCCACCTGCAGGTTCACCCCGTCCCTGGC
DNA 3: AAGATGTCCTAGCAAGGCACCCTAGTAGC
binds: all assays above
